The experiment addresses PspGI-D138A selenomethionine variant (Pyrococcus GI-H). As to the kind of experiment: crystal structure.

Results on one substance are retold here after PMC2577326.

In turn, “PspGI-D138A selenomethionine variant (enzyme)” came in with a stoichiometry N of 2.

For orientation: stoichiometry N means the number of molecules, sites or subunits per partner or assembly.
